This assay addresses Stat1α (human). The assay can be described thus: co-immunoprecipitation with anti-FLAG M2 from COS cells with or without EGF, blot with Stat1 antiserum.

For FLAG-tagged Stat3, the amount of Stat1 coprecipitated, treated cells against untreated cells is 5 fold.

Values taken from patent publication US5716622.
